Laboratory results as given in paper PMC12445000, “Domain-Specific DNA Binding Activities of BRCA1 Reveal Substrate Preferences for Homologous Recombination and Telomere Regulation”.

Key:
BRCA1 DBD1 = BRCA1 DBD1 (human, UniProt P38398 330-554); test: BLI; 150 mM KCl; BLI (BLItz, SAX sensors, immobilized biotin-DNA) in Buffer H: 20 mM HEPES pH 7.5, 150 mM KCl, 5 mM TCEP, 5% glycerol, 25 C; steady-state 1:1 fit; errors 95% CI, n=3; conditions: protein: recombinant, tags: Ni-NTA purified (details not given)
BRCA1 DBD2 = BRCA1 DBD2 (human, UniProt P38398 894-1057); test: as above; conditions: protein: recombinant, tags: Ni-NTA purified (details not given)
[1] = label: 5' biotin on strand 1, 5' Cy3 on strand 2, blunt

Chain of BRCA1 DBD1 (P38398 330-554): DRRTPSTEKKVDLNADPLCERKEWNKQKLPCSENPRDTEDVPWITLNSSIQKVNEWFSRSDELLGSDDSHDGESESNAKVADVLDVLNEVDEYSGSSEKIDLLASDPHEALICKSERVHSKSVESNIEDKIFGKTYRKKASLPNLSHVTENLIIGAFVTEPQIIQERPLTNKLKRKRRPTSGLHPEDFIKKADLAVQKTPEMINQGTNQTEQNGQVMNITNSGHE
Chain of BRCA1 DBD2 (P38398 894-1057): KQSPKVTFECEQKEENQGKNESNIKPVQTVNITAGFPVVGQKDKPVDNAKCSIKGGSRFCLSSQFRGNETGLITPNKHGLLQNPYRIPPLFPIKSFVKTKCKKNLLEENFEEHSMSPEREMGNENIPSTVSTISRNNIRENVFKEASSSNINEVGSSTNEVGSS

B1: BioG4Telo (G4) (structured_DNA)
DNA: TTAGGGTTAGGGTTAGGGTTAGGG
For B1, the Kd (BRCA1 DBD1; label: 5' biotin, G4) was 67.2 ± 12.5 nM and the Kd (BRCA1 DBD2; label: 5' biotin, G4) was 34.7 ± 16.1 nM.

B2: Bioss60R (ssDNA) (ssDNA)
DNA: CCATGGCTCCTGAGCTAGCTGCAGTAGCCTAAAGGATGAAACTAGGATCTTATGCTCCAT
Binder B2 has a Kd (BRCA1 DBD1; label: 5' biotin) of 68.4 ± 33.8 nM and a Kd (BRCA1 DBD2; label: 5' biotin) of 40.8 ± 3.7 nM.

B3: Biods60R (dsDNA) (dsDNA)
DNA 1: CCATGGCTCCTGAGCTAGCTGCAGTAGCCTAAAGGATGAAACTAGGATCTTATGCTCCAT
DNA 2: ATGGAGCATAAGATCCTAGTTTCATCCTTTAGGCTACTGCAGCTAGCTCAGGAGCCATGG
In the case of B3, the Kd (BRCA1 DBD1; [1]) is reported as 35.5 ± 9 nM and the Kd (BRCA1 DBD2; [1]) is reported as 44.6 ± 6 nM.
